Our source for the EC50 for calcium flux in CCR1-transfected HEK293 cells values is PMC2706832.

A value given as a limit tells only on which side of the number the result lay.

The assay deals with wild-type CCR1 expressed on HEK293 cells (human) (UniProt P32246).
Sequence of wild-type CCR1 expressed on HEK293 cells (human) (P32246 whole entry): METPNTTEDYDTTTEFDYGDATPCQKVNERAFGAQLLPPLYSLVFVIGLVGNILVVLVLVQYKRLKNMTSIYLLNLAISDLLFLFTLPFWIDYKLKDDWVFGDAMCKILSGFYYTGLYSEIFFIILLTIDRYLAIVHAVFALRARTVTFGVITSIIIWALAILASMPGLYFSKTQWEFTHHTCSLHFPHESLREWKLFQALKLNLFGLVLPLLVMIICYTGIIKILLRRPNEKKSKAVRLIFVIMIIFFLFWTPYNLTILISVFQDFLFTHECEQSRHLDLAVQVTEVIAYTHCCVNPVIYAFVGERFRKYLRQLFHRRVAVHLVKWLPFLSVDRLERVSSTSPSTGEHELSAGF

B1: CCL14 full length (1-74) (ligand)
chain: TKTESSSRGPYHPSECCFTYTTYKIPRQRIMDYYETNSQCSKPGIVFITKRGHSVCTNPSDKWVQDYIKDMKEN
In the case of B1, the EC50 for calcium flux in CCR1-transfected HEK293 cells was > 1000 nM.
